The target of assay [1] is porcine brain tubulin (microtubules) (porcine). The assay can be described thus: microtubule-capping assay with TIRF microscopy; Taxol-, docetaxel- or GMPCPP-stabilized microtubules held on the coverslip through biotin–neutravidin; γ-TuC (GCP3–GFP) in solution; 5 µM tubulin, 50 mM KCl, MRB80, 30 °C; capped if γ-TuC stayed bound for at least 2 min.
For assay [2] the target is unchanged.
Assay [3] shares this target. This is another data set of the same source.
Assay [4] has the same target. The assay is described as follows: in vitro reconstitution with TIRF microscopy; as a7 with 5 nM SNAP–AF647–CAMSAP3 and 200 nM chTOG–mCherry (not premixed).
Assay [5] shares this target. The assay is described as follows: in vitro reconstitution with TIRF microscopy; as a7 with 5 nM SNAP–AF647–CAMSAP3 and 30 nM mCherry–CLASP2 (pre-incubated with γ-TuC).
For assay [6] the target is unchanged. The assay is described as follows: in vitro reconstitution with TIRF microscopy; as a7 with 5 nM SNAP–AF647–CAMSAP3 and 30 nM mCherry–CDK5RAP2 (pre-incubated with γ-TuC).
The target is the same in assay [7]. The assay is described as follows: in vitro reconstitution with TIRF microscopy; microtubules nucleated from and anchored at γ-TuC (GCP3–GFP) held by anti-GFP nanobody; 25 µM tubulin, 80 mM KCl, MRB80, 30 °C; 5 nM SNAP–AF647–CAMSAP3, 5 nM SNAP–AF647–CAMSAP1 or 40 nM mCherry–CAMSAP2; scored over 10 min.

“γ-tubulin-containing complexes (complete and incomplete γ-TuRC) purified using GCP3–GFP–SII (from UniProt Q96CW5 1-907; Q9BSJ2 1-902; Q9UGJ1 1-667; Q96RT8 1-1024; Q96RT7 1-1819; P23258 1-451)” came in with a capping efficiency (percent of minus ends capped by γ-TuC) in assay [1] of 30 to 60%.

B1: SNAP–AF647–CAMSAP3 (natural protein)
chain: MVEAAPAGSGPLRRTFLVPEIKSLDQYDFSRAKAAASLAWVLRAAFGGAEHVPPELWEPFYTDQYAQEHVKPPVTRLLLSAELYCRAWRQALPQLEPSPSPSALLALLARRGTVPSLPEHPVREADLKHQPILMGAHLAVIDALMVAFSFEWTKTLPGPLALSSLEHKLLFWVDTTVRRLQEKTEQEAAQRASPAAPLDGASPAQPSIRYRKDRAIARRAPCFPNVTTLQDLASGAALAATIHCYCPQLLRLEEVCLKDPMSVADSLYNLQLVQDFCASHLPRGCPLSLEDLLYVPPPLKVNLVVLLAEMYMCFEVLKPDFVQAKDLPDGHAVSPRNTETVPSQNNSGSSSPVFNFRHPLLSPGGPQSPLRGSTGSLKSSPSMSHMEALGKAWNRQLSRPLSQAVSFSTPFGLDSDVDVVMGDPVLLRSVSSDSLGPPRPVSTSSRNSAQPAPESGDLPTIEEALQIIHSAEPRLLPDGAADGSFYLHSPEGLSKPPLSPYPPEGASKPLSDRLNKAPIYISHPENPSKSSPCSTGEILKPPPPSEGSPKAVASSPAANNSEVKMTSFAERKKQLVKAEAESGLGSPTSTPVAPEALSSEMSELGARLEEKRRAIEAQKRRIEAIFAKHRQRLGKSAFLQVQPREAAGEAEEEAELGSVPGGERPAGEGQGEPSLRHKSVTFSPDLGPVPPEGLGDYNRAVSKLSAALSSLQRDMQRLTDQQQRLLAPPEAPGPAPPPAAWVIPGPATGPKAASPSPARRAPAARRSPGPGPSPTPRSPKHARPAELKLAPLTRVLTPPHDVDSLPHLRKFSPSQVPVQTRSSILLSEGTPPEEPTTKPALIEIPLASLGEPAADEEGDGSPPGAEDSLEEEASSEGEPRSGLGFFYKDEDKPEDEMAQKRASLLERQQRRVEEARRRKQWQEAEKEQKREEAARLAQEAPGLAFTTPVVASAAPVATLAPTTRAMAPAEEEVGPRRGDFTRLEYERRAQLKLMDDLDKVLRPRASGTGGPGRGGRRATRPRSGCCDDSALARSPARGLLGSRLSKVYSQSTLSLSTVANEAPNNLGVKRPTSRAPSPSGLMSPSRLPGSRERDWENGSNASSPASVPEYTGPRLYKEPSAKSNKFIIHNALSHCCLAGKVNEPQKNRILEEIEKSKANHFLILFRDSSCQFRALYTLSGETEELSRLAGYGPRTVTPAMVEGIYKYNSDRKRFTQIPAKTMSMSVDAFTIQGHLWQSKKPTTPKKGGGTPK
modifications: Alexa Fluor 647 dye on the SNAP tag
B1: in assay [2], the percentage of microtubules released from γ-TuCs with SNAP–AF647–CAMSAP3 was determined as 15%. In assay [3], the γ-TuC displacement frequency (microtubules released among γ-TuC-anchored minus ends colocalizing with the CAMSAP) turned out to be 40%. Also, the percent of γ-TuC-nucleated microtubules with CAMSAP at the minus end is 25% in assay [4], 35% in assay [5], 3% in assay [6] and 30% in assay [7].

These data come from publication PMC10940162.
